B1: [Peptide E] nLDL (peptide)
chain: TGKRYRLKTLRTLKKTSLLEAA
B2: [Peptide C] nLDL (peptide)
chain: YKLQGTTRLTRKRGLKLATALS
B3: [Peptide D] nLDL (peptide)
chain: YKLEGTTRLTRKRGLKLATALS
B4: [Peptide B] nLDL (peptide)
chain: GTTRLTRKRGLKL

Target: LDL receptor (cell surface) (UniProt P01130)
Assay: other, cell binding, total binding double reciprocal plot

LDL receptor (cell surface), sequence (P01130 22-788): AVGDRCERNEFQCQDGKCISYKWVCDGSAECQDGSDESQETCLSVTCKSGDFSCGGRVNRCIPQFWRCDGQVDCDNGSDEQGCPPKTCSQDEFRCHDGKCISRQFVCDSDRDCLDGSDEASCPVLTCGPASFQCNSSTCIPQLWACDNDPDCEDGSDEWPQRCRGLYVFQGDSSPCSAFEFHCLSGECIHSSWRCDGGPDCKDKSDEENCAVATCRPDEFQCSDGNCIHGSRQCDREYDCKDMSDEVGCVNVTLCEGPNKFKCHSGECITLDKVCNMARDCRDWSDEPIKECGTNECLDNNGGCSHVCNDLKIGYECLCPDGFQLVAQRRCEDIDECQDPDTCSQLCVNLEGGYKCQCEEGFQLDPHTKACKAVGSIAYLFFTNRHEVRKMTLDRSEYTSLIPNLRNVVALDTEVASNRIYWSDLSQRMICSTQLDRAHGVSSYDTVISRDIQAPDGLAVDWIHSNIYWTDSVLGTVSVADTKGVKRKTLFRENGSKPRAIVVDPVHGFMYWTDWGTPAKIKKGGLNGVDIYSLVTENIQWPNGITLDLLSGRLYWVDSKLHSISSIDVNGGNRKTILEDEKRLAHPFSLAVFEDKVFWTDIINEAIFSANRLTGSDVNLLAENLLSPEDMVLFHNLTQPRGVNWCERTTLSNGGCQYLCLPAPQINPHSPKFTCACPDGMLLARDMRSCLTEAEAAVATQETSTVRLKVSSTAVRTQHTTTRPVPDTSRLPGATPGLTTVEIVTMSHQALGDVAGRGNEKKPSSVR

In order of rising Kd:
1. B3  3 µM
2. B2  7.7 µM
3. B4  9.3 µM
4. B1  15.2 µM

From patent US20120059148 (published 2012)
